Laboratory results: patent publication US20250361295A1 (ANTENGENE BIOLOGICS, published 2025)
Numbering of substitutions follows the chain as printed.

B1: ch27-F11-E10-G10 (antibody, V domains shown)
VH: EVQLVESGGGLVQPGGSRKLSCAASGFTFSSFGMHWVRQAPEKGLEWVAYISSGSSTIYYADTVKGRFSISRDNPKNTLFLQMTSLRSEDTAMFYCARSTGTGAMDYWGQGTSVTVSS
VL: DIQMTQTTSSLSASLGDRVTISCRASQDISNYLNWYQQKPDGTVKLLIYYTSRLHSGVPSRFSGSGSGTDYSLTISNLEQEDIATYFCQQGNTLPWTFGGGTKLELK
B2: ch25-E7-A10-H6 (antibody, V domains shown)
VH: B1 VH with S31T, S69T, F94Y
VL: B1 VL with N31K, L106I
B3: ch27-G5-E9-B8 (antibody, V domains shown)
VH: B1 VH with S69T, F94Y
VL: B1 VL with R18S, I21F, Y49S, T93A, L106I
B4: ch36-F4-H1-D9 (antibody, V domains shown)
VH: EVKLLESGGGLVQPGGSLKLSCAASGFDFSRYWMIWVRQAPEKGLEWIGEINPDSSTINYTPSLKDKFIISRDNAKNTLYLQMSKVRSEDTALYYCARPYYRYDVGYFDVWGAGTTVTVSS
VL: DIVMTQAPKVLLVSAGDRVTISCKASQSVSNAVVWYQQKPGQSPKLLIFYASNRYTGVPDRFTGSGYGTDFTFSISTVQAEDLAVYFCQQDYSSPWTFGGGTKLEIK
B5: ch42-C8-A12-F3-D11 (antibody, V domains shown)
VH: EVHLVESGGDLVKPGGSLKLSCAASGFTFSSHGMSWVRQTPDKRLEWVATISSGGIYTYHPDSVKGRFSISRDNAKKTLYLQMSSLKSEDTGIYYCTRGQVGNWYFDVWGAGTTVTVSS
VL: DIVITQSPAIMSASPGEKVTINCSASSSVSYMHWFQQTPGTSPKLWIYSTSNLASGVPARFSGSGSGTFYSLTISRMEAEDAATYYCQQRSSYPLTFGAGTKLELK
B6: ch25-G9-G4-C12 (antibody, V domains shown)
VH: B5 VH with H3Q, S52N, I56Y, H60Y, S69T, K77N, G92A, I93M, T97A, V101L
VL: B5 VL with I4M, N22T, T38K, F69S
B7: ch7-B4-C1-C9 (antibody, V domains shown)
VH: EVQLQQSGTELVKPGASVKLSCKASGYTFTNYWMHWVKQRPGQGLEWIGEINPSNGRTNYNEKFKTKATLTVDKSSSTAYMQLSSLTSEDSAVYYCARSTYYGYDWYFDVWGAGTTVTVSS
VL: DIVLTQSPSSMYASLGERVTITCKASQDINSYLSWFQQKPGKSPKTLIYRANRLLDGVPSRFSGGGSGQDYSLTISSLEHEDMGIYYCLQCDEFPHTFGGGTKLEIK
B8: IO-202 (antibody, V domains shown)
VH: EVQLLESGGGLVQPGGSLRLSCAASGIDFSNHYYMYWVRQAPGKGLEWIGSIFSGDSASTYYADSAKGRFTISRDNSKNTLYLQMNSLRAEDTAVYYCARGMSTNDWASDLWGQGTLVTVSS
VL: DIQMTQSPSSLSASVGDRVTITCQASESINSIYLAWYQQKPGKAPKLLIYRASTLASGVPSRFSGSGSGTDFTLTISSLQPEDFATYYCQQSYDWGDVENTFGGGTKVEIK
B9: ch4-E6-E4-B12 (antibody, V domains shown)
VH: EVQLKESGAELVKPGASVKLSCKASGYTFTSHWMHWVKQRPGQGLEWIGEINPSNGRTNYNEKFTSKATLTVDQSSSTAYMQLSSLTSEDSAVYYCARGNLTTVVPFDYWGQGTALTVSS
VL: DIVMTQSPSSLSASLGGKVTITCKASQDINKFIAWYQHKPGKGPRLLIHFTSTLQPGIPSRFSGSGSGRDYSFSISNLEPEDIATYFCLQYDLLLTFGGGTKLEIK
B10: ch2-H8-C9-F7-E2 (antibody, V domains shown)
VH: B9 VH with K5Q, E6Q, S31N, H32Y, T65K, Q74K, N100S, A115T
VL: DIQMTQTPSSLSASLGGKVTITCKASQDINNYIAWYQHKPGKGPRLLIHYTSTLQPGIPSRFSGSGSGRDYSFSISNLEPEDIATYFCLQYDILLTFGGGTKLEK
B11: h8-B3-F6-H8 (antibody, V domains shown)
VH: EVQLVESGGGLVQPGGSLRLSCAASGFDFSRYWMSWVRQAPGKGLVWIGEINPESSAINYAPSLKDRFTISRDNAKNTLYLQMNSLRAEDTAVYYCATSMTMDYWGQGTLVTVSS
VL: DIQMTQSPSSLSASVGDRVTITCKASQDIKSYLSWYQQKPGKAPKTLIYYATSLAGGVPSRFSGSGSGTDYTLTISSLQPEDFATYYCLQHGESPYTFGGGTKLEIK
notes: humanized antibody of ch8-B3-F6-H8; also called humanized 8-B3-F6-H8

The binders below were run against T1, human LILRA6 protein (human, UniProt Q6PI73 24-447, limits assumed) (assay: ELISA, LILRA6 protein).
T1 construct: protein for ELISA; construct not described; also called hLILRA6 protein
T1 sequence (Q6PI73 24-447 limits assumed): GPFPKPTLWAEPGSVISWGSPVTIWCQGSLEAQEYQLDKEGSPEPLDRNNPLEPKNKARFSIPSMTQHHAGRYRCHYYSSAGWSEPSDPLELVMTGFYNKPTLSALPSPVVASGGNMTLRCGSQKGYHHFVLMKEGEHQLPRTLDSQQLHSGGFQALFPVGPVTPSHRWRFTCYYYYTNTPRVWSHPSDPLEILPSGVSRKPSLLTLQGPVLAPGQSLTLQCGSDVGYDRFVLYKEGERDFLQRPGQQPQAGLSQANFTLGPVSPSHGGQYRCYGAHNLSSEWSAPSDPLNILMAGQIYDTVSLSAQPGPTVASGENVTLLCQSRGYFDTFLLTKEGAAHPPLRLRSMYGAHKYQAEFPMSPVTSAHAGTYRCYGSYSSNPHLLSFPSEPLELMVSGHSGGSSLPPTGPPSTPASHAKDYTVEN
B1: no binding. B2: no binding. B3: no binding. B4: no binding. With B5 the “ELISA(OD450)” value was 0.32 OD450. B6 was tested, and the “ELISA(OD450)” value was 0.687 OD450. B7: no binding. For B8, the “ELISA(OD450)” value was 0.157 OD450. For B9, the “ELISA(OD450)” value was 0.353 OD450. For B10, the “ELISA(OD450)” value was 0.576 OD450.

What follows are binders tested against T2, human LILRB4 (human, UniProt Q8NHJ6 22-448) (assay: cell-based or functional assay).
In the case of B1, the “Max cell cytotoxicity (%), ADCC on THP-1 cells” value (“Max cell cytotoxicity (%), ADCC” below) is reported as 18.7%. In the case of B2, the “Max cell cytotoxicity (%), ADCC” value is reported as 11.7%. In the case of B3, the “Max cell cytotoxicity (%), ADCC” value is reported as 16.4%. For B4, the “Max cell cytotoxicity (%), ADCC” value was 17.9%. B5 was tested, and the “Max cell cytotoxicity (%), ADCC” value was 14.5%. For B6, the “Max cell cytotoxicity (%), ADCC” value was 11%. In the case of B7, the “Max cell cytotoxicity (%), ADCC” value is reported as 13.9%. In the case of B8, the “EC50 (nM), ADCC on THP-1 cells” value is reported as 248 nM and the “Max cell cytotoxicity (%), ADCC” value is reported as 13.9%. For B9, the “Max cell cytotoxicity (%), ADCC” value was 14.6%. With B10 the “EC50 (nM), ADCC on THP-1 cells” value was 1.38 nM and the “Max cell cytotoxicity (%), ADCC” value was 31.1%.

Target: T2, human LILRB4
Assay: cell-based or functional assay
Remark: another data set of the same source
For B1, the “ADCP (%) at 133.3 nM, macrophages and MV-4-11 cells” value (“ADCP (%) at 133.3 nM” for short) was 16.3%. With B2 the “ADCP (%) at 133.3 nM” value was 11%. In the case of B3, the “ADCP (%) at 133.3 nM” value is reported as 14.8%. With B4 the “ADCP (%) at 133.3 nM” value was 14.8%. For B5, the “ADCP (%) at 133.3 nM” value was 20.4%. For B6, the “ADCP (%) at 133.3 nM” value was 24.2%. For B7, the “ADCP (%) at 133.3 nM” value was 11.8%. With B8 the “ADCP (%) at 133.3 nM” value was 21.8%. B9 was tested, and the “ADCP (%) at 133.3 nM” value was 14.1%. With B10 the “ADCP (%) at 133.3 nM” value was 9.35%.

Target: T2, human LILRB4
Assay: cell-based or functional assay
Remark: another data set of the same source
In the case of B1, the “FcγR stimulation (TNF-α, pg/mL)” value is reported as 393 pg/mL and the “Fold change (Compared to isotype)” value is reported as 12.4 fold. For B2, the “FcγR stimulation (TNF-α, pg/mL)” value was 390 pg/mL and the “Fold change (Compared to isotype)” value was 12.3 fold. In the case of B3, the “FcγR stimulation (TNF-α, pg/mL)” value is reported as 394 pg/mL and the “Fold change (Compared to isotype)” value is reported as 12.5 fold. In the case of B4, the “FcγR stimulation (TNF-α, pg/mL)” value is reported as 543 pg/mL and the “Fold change (Compared to isotype)” value is reported as 17.2 fold. B5 was tested, and the “FcγR stimulation (TNF-α, pg/mL)” value was 308 pg/mL and the “Fold change (Compared to isotype)” value was 9.73 fold. For B6, the “FcγR stimulation (TNF-α, pg/mL)” value was 356 pg/mL and the “Fold change (Compared to isotype)” value was 11.3 fold. With B7 the “FcγR stimulation (TNF-α, pg/mL)” value was 415 pg/mL and the “Fold change (Compared to isotype)” value was 13.1 fold. For B8, the “FcγR stimulation (TNF-α, pg/mL)” value was 238 pg/mL and the “Fold change (Compared to isotype)” value was 7.52 fold. With B9 the “FcγR stimulation (TNF-α, pg/mL)” value was 266 pg/mL and the “Fold change (Compared to isotype)” value was 8.43 fold. In the case of B10, the “FcγR stimulation (TNF-α, pg/mL)” value is reported as 310 pg/mL and the “Fold change (Compared to isotype)” value is reported as 9.82 fold.

The binders below were run against T3, human LILRB3 (human, UniProt O75022 24-631) (assay: FACS, 293F-hLILRB3 cells).
T3 construct: whole, on cells; also called hLILRB3
T3 sequence (O75022 24-631): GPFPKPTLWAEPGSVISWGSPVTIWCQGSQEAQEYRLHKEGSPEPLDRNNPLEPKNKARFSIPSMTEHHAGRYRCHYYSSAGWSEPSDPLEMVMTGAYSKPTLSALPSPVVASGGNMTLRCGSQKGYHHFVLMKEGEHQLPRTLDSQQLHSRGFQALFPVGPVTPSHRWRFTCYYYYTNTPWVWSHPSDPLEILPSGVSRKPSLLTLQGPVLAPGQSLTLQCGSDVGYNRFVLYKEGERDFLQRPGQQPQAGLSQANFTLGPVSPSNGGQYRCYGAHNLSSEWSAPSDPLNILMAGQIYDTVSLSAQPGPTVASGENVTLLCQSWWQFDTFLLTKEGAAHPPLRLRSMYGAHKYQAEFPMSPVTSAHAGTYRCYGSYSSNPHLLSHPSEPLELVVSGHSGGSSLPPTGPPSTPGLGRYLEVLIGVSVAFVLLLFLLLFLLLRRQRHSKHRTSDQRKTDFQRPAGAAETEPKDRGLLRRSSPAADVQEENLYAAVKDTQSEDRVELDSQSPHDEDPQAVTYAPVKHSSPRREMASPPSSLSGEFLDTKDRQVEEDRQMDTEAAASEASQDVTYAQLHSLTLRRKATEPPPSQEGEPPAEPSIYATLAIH
Method: (§1) The protocol for FACS analysis is described as follows: [0438] (a) Cells were harvested by centrifugation at 300 g for 3 mins. […] (b) The cells were washed for 2 times with FACS buffer by centrifuging at 300 g for 3 mins and the supernatant was discarded. [0440] (c) Cell were resuspended and seeded into assay plate (2×10⁵ cells/well) in 50 μl FACS buffer. […] Cells were incubated with antibodies at 4° C. for 1 hour. […] (d) Step (b) was repeated and the cells were resuspended with 100 μl diluted 2nd antibody, incubated at 4° C. for 1 hour in the dark. [0442] (e) Step (b) was repeated and the cells were resuspended with 100 μl FACS buffer. The cells were kept in dark for FACS analysis.
B1: no binding (tested: up to 66.67 nM). B2: no binding (tested: up to 66.67 nM). B3: no binding (tested: up to 66.67 nM). B4: no binding (tested: up to 66.67 nM). Binder B5 has an EC50 of 12.8 nM. B6: no binding (tested: up to 66.67 nM). B7: no binding (tested: up to 66.67 nM). B8: no binding (tested: up to 66.67 nM). B9: no binding (tested: up to 66.67 nM). B10: no binding (tested: up to 66.67 nM).

What follows are binders tested against T2, human LILRB4 (assay: FACS, 293F-hLILRB4 cells).
Method: as §1
With B1 the EC50 was 1.52 nM and the “Max MFI” value was 46200 MFI. B2 was tested, and the EC50 was 1.4 nM and the “Max MFI” value was 45000 MFI. B3 was tested, and the EC50 was 1.75 nM and the “Max MFI” value was 44300 MFI. With B4 the EC50 was 1.99 nM and the “Max MFI” value was 48200 MFI. For B5, the EC50 was 1.36 nM and the “Max MFI” value was 48400 MFI. B6 was tested, and the EC50 was 1.55 nM and the “Max MFI” value was 43300 MFI. B7 was tested, and the EC50 was 0.54 nM and the “Max MFI” value was 47300 MFI. For B8, the EC50 was 0.016 nM and the “Max MFI” value was 39700 MFI. B9 was tested, and the EC50 was 1.09 nM and the “Max MFI” value was 54500 MFI. B10 was tested, and the EC50 was 1.23 nM and the “Max MFI” value was 41000 MFI.

What follows are binders tested against T2, human LILRB4 (assay: ELISA and FACS on 293F-hLILRB4 cells).
B11: binds.
